Results taken from article PMC3302164 (Science Signaling, 2010).

Biological target: HA-PP2cA, expressed in HEK 293 cells (UniProt P67775 1-309)
Experiment: co-IP

Chain of HA-PP2cA, expressed in HEK 293 cells (P67775 whole entry): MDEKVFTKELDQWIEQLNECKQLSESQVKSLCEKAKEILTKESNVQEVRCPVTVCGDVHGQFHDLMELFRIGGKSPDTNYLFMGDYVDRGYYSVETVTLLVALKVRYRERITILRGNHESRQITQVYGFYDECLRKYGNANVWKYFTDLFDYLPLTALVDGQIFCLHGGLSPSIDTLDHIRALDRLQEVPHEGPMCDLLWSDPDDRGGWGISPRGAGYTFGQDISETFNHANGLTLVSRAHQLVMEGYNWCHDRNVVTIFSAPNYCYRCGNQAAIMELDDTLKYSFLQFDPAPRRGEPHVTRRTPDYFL

B1: FLAG-KAP1 (wild type), expressed in HEK 293 cells (natural protein, human, UniProt Q13263 1-835, looked up)
chain: MAASAAAASAAAASAASGSPGPGEGSAGGEKRSTAPSAAASASASAAASSPAGGGAEALELLEHCGVCRERLRPEREPRLLPCLHSACSACLGPAAPAAANSSGDGGAAGDGTVVDCPVCKQQCFSKDIVENYFMRDSGSKAATDAQDANQCCTSCEDNAPATSYCVECSEPLCETCVEAHQRVKYTKDHTVRSTGPAKSRDGERTVYCNVHKHEPLVLFCESCDTLTCRDCQLNAHKDHQYQFLEDAVRNQRKLLASLVKRLGDKHATLQKSTKEVRSSIRQVSDVQKRVQVDVKMAILQIMKELNKRGRVLVNDAQKVTEGQQERLERQHWTMTKIQKHQEHILRFASWALESDNNTALLLSKKLIYFQLHRALKMIVDPVEPHGEMKFQWDLNAWTKSAEAFGKIVAERPGTNSTGPAPMAPPRAPGPLSKQGSGSSQPMEVQEGYGFGSGDDPYSSAEPHVSGVKRSRSGEGEVSGLMRKVPRVSLERLDLDLTADSQPPVFKVFPGSTTEDYNLIVIERGAAAAATGQPGTAPAGTPGAPPLAGMAIVKEEETEAAIGAPPTATEGPETKPVLMALAEGPGAEGPRLASPSGSTSSGLEVVAPEGTSAPGGGPGTLDDSATICRVCQKPGDLVMCNQCEFCFHLDCHLPALQDVPGEEWSCSLCHVLPDLKEEDGSLSLDGADSTGVVAKLSPANQRKCERVLLALFCHEPCRPLHQLATDSTFSLDQPGGTLDLTLIRARLQEKLSPPYSSPQEFAQDVGRMFKQFNKLTEDKADVQSIIGLQRFFETRMNEAFGDTKFSAVLVEPPPMSLPGAGLSSQELSGGPGDGP
  extent of interaction relative to that with PP1α, after doxorubicin: ~53%
